Experimental data as given in the supplement of paper PMC5998384.

Legend:
HeLa Kyoto [1] = experiment: solubility in G1/S (NP-40 vs SDS abundance) (log2 ratio); higher = more soluble; conditions: cell cycle stage: G1/S
HeLa Kyoto [2] = experiment: thermal stability score vs G1/S (z-score of summed log2 fold changes over temperatures); higher = more thermally stable than in G1/S
HeLa Kyoto [3] = experiment: melting temperature (median over replicates), in situ; higher = more thermally stable
HeLa Kyoto [4] = experiment: solubility change mitosis vs G1/S (difference of NP-40 vs SDS log2 ratios) (log2 ratio difference); higher = more soluble in mitosis
[5] = cell cycle stage: early G1 (4.5 h after nocodazole release)
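Throughout, for melting temperature (median over replicates), in situ: HeLa Kyoto cells synchronized by double thymidine or nocodazole block, proteins quantified by TMT10plex mass spectrometry, three independent biological replicates.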
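Throughout, for solubility change mitosis vs G1/S (difference of NP-40 vs SDS log2 ratios): synchronized HeLa Kyoto cells (double thymidine block for G1/S, nocodazole release for mitosis), protein amounts in NP-40 versus SDS lysates quantified by mass spectrometry, three biological replicates.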
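Throughout, for solubility in G1/S (NP-40 vs SDS abundance): HeLa Kyoto cells arrested at G1/S by double thymidine block, proteins quantified by TMT10plex mass spectrometry in mild NP-40 versus SDS extracts, three biological replicates.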
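Throughout, for thermal stability score vs G1/S (z-score of summed log2 fold changes over temperatures): synchronized HeLa Kyoto cells, proteins quantified by TMT10plex mass spectrometry, three biological replicates, mitosis taken 0.5 h after nocodazole release, G1/S directly after double thymidine block.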

PPIC, sequence (chain, as listed by the source): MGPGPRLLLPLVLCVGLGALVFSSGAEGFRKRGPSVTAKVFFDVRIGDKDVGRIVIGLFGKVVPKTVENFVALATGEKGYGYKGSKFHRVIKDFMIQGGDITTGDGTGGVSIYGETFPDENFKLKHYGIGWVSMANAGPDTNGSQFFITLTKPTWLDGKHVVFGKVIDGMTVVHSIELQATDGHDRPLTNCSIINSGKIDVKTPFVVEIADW

Substance	solubility in G1/S (log2) (HeLa Kyoto [1])	thermal stability score (HeLa Kyoto [2]; [5])	thermal stability score (HeLa Kyoto [2]; cell cycle stage: mitosis)	melting temperature (HeLa Kyoto [3]; cell cycle stage: G1/S) [°C]	melting temperature (HeLa Kyoto [3]; cell cycle stage: mitosis) [°C]	solubility change mitosis (log2) (HeLa Kyoto [4])
MRPGTGAERGGLMVSEMESHPPSQGPGDGERRLSGSSLCSGSWVSADGFLRRRPSMGHPGMHYAPMGMHPMGQRANMPPVPHGMMPQMMPPMGGPPMGQMPGMMSSVMPGMMMSHMSQASMQPALPPGVNSMDVAAGTASGAKSMWTEHKSPDGRTYYYNTETKQSTWEKPDDLKTPAEQLLSKCPWKEYKSDSGKPYYYNSQTKESRWAKPKELEDLEGYQNTIVAGSLITKSNLHAMIKAEESSKQEECTTTSTAPVPTTEIPTTMSTMAAAEAAAAVVAAAAAAAAAAAAANANASTSASNTVSGTVPVVPEPEVTSIVATVVDNENTVTISTEEQAQLTSTPAIQDQSVEVSSNTGEETSKQETVADFTPKKEEEESQPAKKTYTWNTKEEAKQAFKELLKEKRVPSNASWEQAMKMIINDPRYSALAKLSEKKQAFNAYKVQTEKEEKEEARSKYKEAKESFQRFLENHEKMTSTTRYKKAEQMFGEMEVWNAISERDRLEIYEDVLFFLSKKEKEQAKQLRKRNWEALKNILDNMANVTYSTTWSEAQQYLMDNPTFAEDEELQNMDKEDALICFEEHIRALEKEEEEEKQKSLLRERRRQRKNRESFQIFLDELHEHGQLHSMSSWMELYPTISSDIRFTNMLGQPGSTALDLFKFYVEDLKARYHDEKKIIKDILKDKGFVVEVNTTFEDFVAIISSTKRSTTLDAGNIKLAFNSLLEKAEAREREREKEEARKMKRKESAFKSMLKQAAPPIELDAVWEDIRERFVKEPAFEDITLESERKRIFKDFMHVLEHECQHHHSKNKKHSKKSKKHHRKRSRSRSGSDSDDDDSHSKKKRQRSESRSASEHSSSAESERSYKKSKKHKKKSKKRRHKSDSPESDAEREKDKKEKDRESEKDRTRQRSESKHKSPKKKTGKDSGNWDTSGSELSEGELEKRRRTLLEQLDDDQ [PRPF40A]	-1.2	1.36	6.53	47.1	48.8	0.633
MDKVCAVFGGSRGIGRAVAQLMARKGYRLAVIARNLEGAKAAAGDLGGDHLAFSCDVAKEHDVQNTFEELEKHLGRVNFLVNAAGINRDGLLVRTKTEDMVSQLHTNLLGSMLTCKAAMRTMIQQQGGSIVNVGSIVGLKGNSGQSVYSASKGGLVGFSRALAKEVARKKIRVNVVAPGFVHTDMTKDLKEEHLKKNIPLGRFGETIEVAHAVVFLLESPYITGHVLVVDGGLQLIL [CBR4]	0.0654	1.14	-0.318	54	55.2	-0.0343
MTDLVAVWDVALSDGVHKIEFEHGTTSGKRVVYVDGKEEIRKEWMFKLVGKETFYVGAAKTKATINIDAISGFAYEYTLEINGKSLKKYMEDRSKTTNTWVLHMDGENFRIVLEKDAMDVWCNGKKLETAGEFVDDGTETHFSIGNHDCYIKAVSSGKRKEGIIHTLIVDNREIPEIAS [FAIM]	-0.00968	0.651	1.16	50.8	49.1	-0.25
MDSKESLTPGREENPSSVLAQERGDVMDFYKTLRGGATVKVSASSPSLAVASQSDSKQRRLLVDFPKGSVSNAQQPDLSKAVSLSMGLYMGETETKVMGNDLGFPQQGQISLSSGETDLKLLEESIANLNRSTSVPENPKSSASTAVSAAPTEKEFPKTHSDVSSEQQHLKGQTGTNGGNVKLYTTDQSTFDILQDLEFSSGSPGKETNESPWRSDLLIDENCLLSPLAGEDDSFLLEGNSNEDCKPLILPDTKPKIKDNGDLVLSSPSNVTLPQVKTEKEDFIELCTPGVIKQEKLGTVYCQASFPGANIIGNKMSAISVHGVSTSGGQMYHYDMNTASLSQQQDQKPIFNVIPPIPVGSENWNRCQGSGDDNLTSLGTLNFPGRTVFSNGYSSPSMRPDVSSPPSSSSTATTGPPPKLCLVCSDEASGCHYGVLTCGSCKVFFKRAVEGQHNYLCAGRNDCIIDKIRRKNCPACRYRKCLQAGMNLEARKTKKKIKGIQQATTGVSQETSENPGNKTIVPATLPQLTPTLVSLLEVIEPEVLYAGYDSSVPDSTWRIMTTLNMLGGRQVIAAVKWAKAIPGFRNLHLDDQMTLLQYSWMFLMAFALGWRSYRQSSANLLCFAPDLIINEQRMTLPCMYDQCKHMLYVSSELHRLQVSYEEYLCMKTLLLLSSVPKDGLKSQELFDEIRMTYIKELGKAIVKREGNSSQNWQRFYQLTKLLDSMHEVVENLLNYCFQTFLDKTMSIEFPEMLAEIITNQIPKYSNGNIKKLLFHQK [NR3C1]	0.0188	0.508	1.98	48.2	49.3	-0.168
MAANYSSTSTRREHVKVKTSSQPGFLERLSETSGGMFVGLMAFLLSFYLIFTNEGRALKTATSLAEGLSLVVSPDSIHSVAPENEGRLVHIIGALRTSKLLSDPNYGVHLPAVKLRRHVEMYQWVETEESREYTEDGQVKKETRYSYNTEWRSEIINSKNFDREIGHKNPSAMAVESFMATAPFVQIGRFFLSSGLIDKVDNFKSLSLSKLEDPHVDIIRRGDFFYHSENPKYPEVGDLRVSFSYAGLSGDDPDLGPAHVVTVIARQRGDQLVPFSTKSGDTLLLLHHGDFSAEEVFHRELRSNSMKTWGLRAAGWMAMFMGLNLMTRILYTLVDWFPVFRDLVNIGLKAFAFCVATSLTLLTVAAGWLFYRPLWALLIAGLALVPILVARTRVPAKKLE [TMEM43]	-0.206	3.06	4.18	53.5	53.1	-0.244
PPIC	0.0897	1.01	-0.315	53.6	53.4	-0.103
MADMQNLVERLERAVGRLEAVSHTSDMHRGYADSPSKAGAAPYVQAFDSLLAGPVAEYLKISKEIGGDVQKHAEMVHTGLKLERALLVTASQCQQPAENKLSDLLAPISEQIKEVITFREKNRGSKLFNHLSAVSESIQALGWVAMAPKPGPYVKEMNDAAMFYTNRVLKEYKDVDKKHVDWVKAYLSIWTELQAYIKEFHTTGLAWSKTGPVAKELSGLPSGPSAGSCPPPPPPCPPPPPVSTISCSYESASRSSLFAQINQGESITHALKHVSDDMKTHKNPALKAQSGPVRSGPKPFSAPKPQTSPSPKRATKKEPAVLELEGKKWRVENQENVSNLVIEDTELKQVAYIYKCVNTTLQIKGKINSITVDNCKKLGLVFDDVVGIVEIINSKDVKVQVMGKVPTISINKTDGCHAYLSKNSLDCEIVSAKSSEMNVLIPTEGGDFNEFPVPEQFKTLWNGQKLVTTVTEIAG [CAP1]	0.178	-0.637	-0.459	53.6	53.2	0.000121
MESAIAEGGASRFSASSGGGGSRGAPQHYPKTAGNSEFLGKTPGQNAQKWIPARSTRRDDNSAANNSANEKERHDAIFRKVRGILNKLTPEKFDKLCLELLNVGVESKLILKGVILLIVDKALEEPKYSSLYAQLCLRLAEDAPNFDGPAAEGQPGQKQSTTFRRLLISKLQDEFENRTRNVDVYDKRENPLLPEEEEQRAIAKIKMLGNIKFIGELGKLDLIHESILHKCIKTLLEKKKRVQLKDMGEDLECLCQIMRTVGPRLDHERAKSLMDQYFARMCSLMLSKELPARIRFLLQDTVELREHHWVPRKAFLDNGPKTINQIRQDAVKDLGVFIPAPMAQGMRSDFFLEGPFMPPRMKMDRDPLGGLADMFGQMPGSGIGTGPGVIQDRFSPTMGRHRSNQLFNGHGGHIMPPTQSQFGEMGGKFMKSQGLSQLYHNQSQGLLSQLQGQSKDMPPRFSKKGQLNADEISLRPAQSFLMNKNQVPKLQPQITMIPPSAQPPRTQTPPLGQTPQLGLKTNPPLIQEKPAKTSKKPPPSKEELLKLTETVVTEYLNSGNANEAVNGVREMRAPKHFLPEMLSKVIILSLDRSDEDKEKASSLISLLKQEGIATSDNFMQAFLNVLDQCPKLEVDIPLVKSYLAQFAARAIISELVSISELAQPLESGTHFPLFLLCLQQLAKLQDREWLTELFQQSKVNMQKMLPEIDQNKDRMLEILEGKGLSFLFPLLKLEKELLKQIKLDPSPQTIYKWIKDNISPKLHVDKGFVNILMTSFLQYISSEVNPPSDETDSSSAPSKEQLEQEKQLLLSFKPVMQKFLHDHVDLQVSALYALQVHCYNSNFPKGMLLRFFVHFYDMEIIEEEAFLAWKEDITQEFPGKGKALFQVNQWLTWLETAEEEESEEEAD [EIF4G2]	0.402	1.01	3.88	48.4	48.3	0.0198
MELEDGVVYQEEPGGSGAVMSERVSGLAGSIYREFERLIGRYDEEVVKELMPLVVAVLENLDSVFAQDQEHQVELELLRDDNEQLITQYEREKALRKHAEEKFIEFEDSQEQEKKDLQTRVESLESQTRQLELKAKNYADQISRLEEREAELKKEYNALHQRHTEMIHNYMEHLERTKLHQLSGSDQLESTAHSRIRKERPISLGIFPLPAGDGLLTPDAQKGGETPGSEQWKFQELSQPRSHTSLKVSNSPEPQKAVEQEDELSDVSQGGSKATTPASTANSDVATIPTDTPLKEENEGFVKVTDAPNKSEISKHIEVQVAQETRNVSTGSAENEEKSEVQAIIESTPELDMDKDLSGYKGSSTPTKGIENKAFDRNTESLFEELSSAGSGLIGDVDEGADLLGMGREVENLILENTQLLETKNALNIVKNDLIAKVDELTCEKDVLQGELEAVKQAKLKLEEKNRELEEELRKARAEAEDARQKAKDDDDSDIPTAQRKRFTRVEMARVLMERNQYKERLMELQEAVRWTEMIRASRENPAMQEKKRSSIWQFFSRLFSSSSNTTKKPEPPVNLKYNAPTSHVTPSVKKRSSTLSQLPGDKSKAFDFLSEETEASLASRREQKREQYRQVKAHVQKEDGRVQAFGWSLPQKYKQVTNGQGENKMKNLPVPVYLRPLDEKDTSMKLWCAVGVNLSGGKTRDGGSVVGASVFYKDVAGLDTEGSKQRSASQSSLDKLDQELKEQQKELKNQEELSSLVWICTSTHSATKVLIIDAVQPGNILDSFTVCNSHVLCIASVPGARETDYPAGEDLSESGQVDKASLCGSMTSNSSAETDSLLGGITVVGCSAEGVTGAATSPSTNGASPVMDKPPEMEAENSEVDENVPTAEEATEATEGNAGSAEDTVDISQTGVYTEHVFTDPLGVQIPEDLSPVYQSSNDSDAYKDQISVLPNEQDLVREEAQKMSSLLPTMWLGAQNGCLYVHSSVAQWRKCLHSIKLKDSILSIVHVKGIVLVALADGTLAIFHRGVDGQWDLSNYHLLDLGRPHHSIRCMTVVHDKVWCGYRNKIYVVQPKAMKIEKSFDAHPRKESQVRQLAWVGDGVWVSIRLDSTLRLYHAHTYQHLQDVDIEPYVSKMLGTGKLGFSFVRITALMVSCNRLWVGTGNGVIISIPLTETNKTSGVPGNRPGSVIRVYGDENSDKVTPGTFIPYCSMAHAQLCFHGHRDAVKFFVAVPGQVISPQSSSSGTDLTGDKAGPSAQEPGSQTPLKSMLVISGGEGYIDFRMGDEGGESELLGEDLPLEPSVTKAERSHLIVWQVMYGNE [SPAG9]	0.00549	0.672	0.413	51.3	50.6	-0.168
MAVFADLDLRAGSDLKALRGLVETAAHLGYSVVAINHIVDFKEKKQEIEKPVAVSELFTTLPIVQGKSRPIKILTRLTIIVSDPSHCNVLRATSSRARLYDVVAVFPKTEKLFHIACTHLDVDLVCITVTEKLPFYFKRPPINVAIDRGLAFELVYSPAIKDSTMRRYTISSALNLMQICKGKNVIISSAAERPLEIRGPYDVANLGLLFGLSESDAKAAVSTNCRAALLHGETRKTAFGIISTVKKPRPSEGDEDCLPASKKAKCEG [RPP30]	-0.0469	-0.0475	-1.92	55.3	56.1	-0.0188
